Assay results reported in article PMC11389852, “Developing deprotectase biocatalysts for synthesis†” (Faraday Discussions, 2024).

Biological target: the molecule itself
Assay: SEC; size exclusion chromatography of recombinant Cbz-ase (Fig. S32); conditions not told in the main text

B1: Sphingomonas paucimobilis Cbz-ase (amidohydrolase), recombinant (enzyme)
chain: MVQPTPTPQSELPGLIARDMEGLMTLYRDLHANPELSLQEVNTAAKLAKRLKAMKFDVTEKVGGTGVVAVMKNGSGPVLLIRADMDGLPVVEQTGLDFASKVRTKTPEGVETGVMHACGHDTHMTAFIETAKLLSSSKDKWKGTLVMILQPAEEVGKGARDMLEDGLYTRFPRPTHAIAFHDAANLQAGVVGYTPGYALANVDSVDIVVKGLGGHGAYPQTTRDPIVLGSRIVTSLQTLVSREQDPQDPAVVTVGSFQAGAKHNIIPDQALLLLTVRSYSDETRAKLIKGIERIARGEAIAAGVPDDKMPVVSVKDEFTPSTYNPPEFAEQMGALLKGHFAEGRVVKTPAVMGGEDFGRFYRADKSINSFIFWVGGVPADKMAAAQAGQITLPSLHSPFWAPEADKVIATASEAMTVLAMDILKKD
**Q.** For B1, which “stoichiometry N” value is on record?
**A.** 4
